Consider 23 sequences from the DeepSol protein solubility set.

The data set in a line: soluble on expression in E. coli; label from the status in PepcDB or PDB records.
As for “MFQDMSKDFDIKRIKRSNTSCSTGVGAHVHPFNEIFYLSSGECTSFIDHNIYKFGKGDLVIVPSGCLHRTTYNGKGMHERIVISFRNEATEWIQNQTGKELMENCMKPGVVNIPEKRRDYVVALLDKLIFENDSPDELSPAFIKVGLIELLLFIIRCKNYEENVIKEIDVDNR”, the “soluble on expression in E. coli” value is listed as “not soluble”.

On to “MFQKVDAYAGDPILTLMERFKEDPRSDKVNLSIGLYYNEDGIIPQLQAVAEAEARLNAQPHGASLYLPMEGLNCYRHAIAPLLFGADHPVLKQQRVATIQTLGGSGALKVGADFLKRYFPESGVWVSDPTWENHVAIFAGAGFEVSTYPWYDEATNGVRFNDLLATLKTLQAGSIVLLHPCCHNPTGADLTNDQWDAVIEILKARELIPFLDIAYQGFGAGMEEDAYAIRAIASAGLPALVSNSFSKIFSLYGERVGGLSVMCEDAEAAGRVLGQLKATVRRNYSSPPNFGAQVVAAVLNDEALKASWLKEVEEMRTRILAMRQELVKVLSTEMPERNFDYLLNQRGMFSYTGLSAAQVDRLREEFGVYLIASGRMCVAGLNTANVQRVAKAFAAVM”, for which the “soluble on expression in E. coli” value is on record as “soluble”. Then “MFQTFEGDLKWHHHNITYWIQNYSEDLPRAVIDDAFARAFALWSAVTPLTFTRVYSRDADIVIQFGVAEHGDGYPFDGKDGLLAHAFPPGPGIQGDAHFDDDELWSLGKGQGYSLFLVAAHEFGHALGLDHSSVPEALMYPMYRFTEGPPLHKDDVNGIRHLY”, with “soluble”. Then “MFRRLILRQAAAVAAESKIACHHTVHGFEQRRGLHSRNEKAMEYVAKGWSAIKEVERVIDYCELNDRRLIPLLRGAKENFELALEADNLNTHARYWLSKLHLKYHVPGACKAVGAALLVEAADMGNADAQYELGCRLRVENDHVQSDQQAFHYIENAVDQLHPGALYLLGIVYLTGDCVKQDVDSAIWCFHRASEKGHAGAAIAYGSLLLRGVQVPESLTKLNVVGVSPPKRARKNLENPEMNPLEMAKEQFQIAARAGCDLGLKWLQRVEQEEKLLMREQDNECAYV”, with “not soluble”. For “MFSDELEKISWEETTKAIYSKTDADVRRALSKEHCDVNDFMALISPAAAPYLETMARLSRKYTMERFGKTISMFVPLYITNSCTNSCVYCGFNHNNPMKRTILTEEEMVNEYKAIKKLAPFENLLLVTGENPAKAGVDYIERALLLAKPYFANLQIEVMPLKAEEYERLTHAGLNGVICFQETYNKANYNIYHPRGMKSKFEWRVNGFDRMGQAGVHKIGMGVLIGLEEWRTDITMMAYHLRYLQKHYWKTKYSVNFPRMRPSENGGFQPNVVMNDRELAQVTFAMRIFDHDVDISYSTRESAAFRNHMATLGVTTMSAESKTEPGGYFTYPQALEQFHVSDERKAVEVDAALRSLGRIPVYKDWDTALTLPQC” the value was “soluble”; for “MFSIFKRKTKQVNPFEQGWLTDLIDIHCHLLPAVDDGSKSIEETLSLIDLLEEIGVKQHILTPHIMEEYPSNDAIFLRARFEELLAAITPDKASRLRLAAEYMLDVAFLDRLAEPLLTLGDR”, “not soluble”; for “MFSPSKFRKQVNESESVSNCESTTSNSRRILDQHAGLPISSAFRTEASDIGHHFSTKMYFKILSPNNVFALMGDNEFKTSFKIFTIFEPTSTPNGKIQSLITISYKINNVLFKMEKEIFIEKVNIFSLELHIFNFQSTNRSNPASESIHQLDLSSEALVTSTLNIRGNKITTTLRPRTSPYKRAGDASMSREDLRSPDSVSTFTTVLHVFHKVFQVAATYTIRENRSERQTKVKLESLERRLKANEKARKEIEAEAEKWKDRATRNSKRLPELELELAETVQAKEEWQVKSQEMEIQNKQLVEELNEVQKKLEEIENSQKTFHQKVVSTLNLDEEYFQNPDEEQDGSLSQFNMDVLEQEIVKYQEKCISLKQENEILKEKLQQLSSSLTVNQNHVSTLMDHLEINKEQSREIQGICKKEIAIRQDHENRINHDVTLLNSLINEQKMELEMLKAEIRCLRSYSQEMSQSNKNNIILLKSAETERKSLLETLTVLLNSEEEATENNVKRTIRDLVRERDTEQTKRFEAEKAASNAEGVLLEQAKQQRNALFRARVSEEEYSKSMEKIEELEQELLASDLERKNLEHKIASLENCISKVSQLLNVNVGGVFDAIFDRIEELIAQESVYRVVVNENRLISENIFRGLQSVRKDFQSGKSGGGSDKKQPASPVAAAAKIIQERHTLKTIDKMDKLNKDLLATMTIETLKAADIEKTNLKKRMNEQDARIRQLEREKKEGERIRSIIAKWEKRNIPKTEKSSPMKKVPPIENFRAKSQTSITGLSPVL”, “not soluble”.

For “MFSSAVRALCRTVPTVATRQLSTSRALLSLRPLGPKNTVPAFKGTAVVDGDFKVISDQDYKGKWLVMFFYPLDFTFVCPTEIIAYGDRANEFRSLGAEVVACSCDSHFSHLAWVNTPRKDGGLGDMDIPLLADFNKKIADSFGVLDKESGLSYRGLFLIDPSGTVRHTTCNDLPVGRSVDETLRVLKAFQFSDKHGEVCPADWHEDSPTIKPGVATSKEYFNKVNK”, the “soluble on expression in E. coli” value is on record as “not soluble”. Then “MFSVTLLVVSCGILAAAYPYSQQYGNYDQQYSQQSQYYPSSGQQGYRGGYQSNPGMQGGYQGNGQDSYQDFQGYQGYQRGQGGQRGYQGYQSNQRSQGSYPERYDSSMYSPVMDLTNYYGSQGTPQYYGYPSSASYQMTPYYQNQNQGYMQQQQYNTPSQSSWSPMYYGNGYQSQQSQQQQSSMGIRPYQSSWGQTQGTNTWGSPYQFTKVDAQVTDDDNVDGSGMDSSEQTSSPASTDDSQMTSNDD”, with “not soluble”. Then “MFTGLVEETGEILKVEEGPFLRVYIGARKVLKDLKVGDSVAVDGACLTAVTVEEGGFWVELAQETLRRTAPTWRVGHRPNLERALKVGDRLGGHFVTGHVDGVARLWEVREAPGAKDFYFLPPKALAPYIAEKGSVALNGVSLTVAGLTGEAFWVTLIPHTLEVTNLGRLRVGDGVNLEVDLIARYVARLLGRA”, with “soluble”.

On to “MFTQLALLSVLAVFVAQATMNLPSQEQYNAELKSAGMSQAGIDGLNVLSQKFVSQYPVVQANKEAADKFLAEYTEEAQNYVKSMSPEDQKIYAESLKKYGLA”, for which the “soluble on expression in E. coli” value is given as “not soluble”. For “MFTRQAGHFVEGSKAGRSRGRLCLSQALRVAVRGAFVSLWFAAGAGDRERNKGDKGAQTGAGLSQEAEDVDVSRARRVTDAPQGTLCGTGNRNSGSQSARAVGVAHLGEAFRVGVEQAISSCPEEVHGRHGLSMEIMWAQMDVALRSPGRGLLAGAGALCMTLAESSCPDYERGRRACLTLHRHPTPHCSTWGLPLRVAGSWLTVVTVEALGRWRMGVRRTGQVGPTMHPPPVSGASPLLLHHLLLLLLIIILTC” the value was “not soluble”; for “MFTYKIGLSTSEHDRFVIDSPQTNLLQSSSWAKIKDSWGNDRLGFYQDDKLVAVASVLIQPLPLGFSMIYIPRGPIMDYQDKELLAFVITSLKKYAKTKRALFVKFDPSLFVTKNLISQEVNINEDTLSIAKDIQALGVEWTGLTEDMAENIQPRFQANIYKEDFTEEQLSKST”, “not soluble”. On to “MFVDQVKVYVKGGDGGNGMVAFRREKYVPKGGPAGGDGGKGGDVVFEVDEGLRTLMDFRYKKHFKAIRGEHGMSKNQHGRNADDMVIKVPPGTVVTDDDTKQVIADLTEHGQRAVIARGGRGGRGNSRFATPANPAPQLSENGEPGKERYIVLELKVLADVGLVGFPSVGKSTLLSVVSSAKPKIADYHFTTLVPNLGMVETDDGRSFVMADLPGLIEGAHQGVGLGHQFLRHIERTRVIVHVIDMSGLEGRDPYDDYLTINQELSEYNLRLTERPQIIVANKMDMPEAAENLEAFKEKLTDDYPVFPISAVTREGLRELLFEVANQLENTPEFPLYDEEEL”, for which the “soluble on expression in E. coli” value is “soluble”. For “MGAGESSMALEKHLFDLKFAAKQLEKNAQRCEKDEKVEKDKLTAAIKKGNKEVAQVHAENAIRKKNEAVNYIKMAARIDAVAARVQTAATQKRVTASMSGVVKAMESAMKSMNLEKVQQLMDRFERDFEDLDVTTKTMEKTMDGTTVLNAPKSQVDALIAEAADKAGIELNQELPSNVPTALPTGTQAVSEDKDLTERLAALRNM” the value was “not soluble”; for “MGALAELAGDEKNGEGSRTFVFTNEGHTLGNALKTIIARYPEVDFCGYTIPHPTEQKLHFRIQSRRDRAIDILKRGLEDLEGLCDHTIVTFEKEMAEFNAMKVENLEHHHHHH”, “not soluble”. For “MGALIPSSTLFNIFDFNPKKVRIAFIAVGLRGQTHVENMARRDDVEIVAFADPDPYMVGRAQEILKKNGKKPAKVFGNGNDDYKNMLKDKNIDAVFVSSPWEWHHEHGVAAMKAGKIVGMEVSGAITLEECWDYVKVSEQTGVPLMALENVCYRRDVMAILNMVRKGMFGELVHGTGGYQHDLRPVLFNSGINGKNGDGVEFGEKAFSEAKWRTNHYKNRNGELYPTHGVGPLHTMMDINRGNRLLRLSSFASKARGLHKYIVDKGGESHPNAKVEWKQGDIVTTQIQCHNGETIVLTHDTSLQRPYNLGFKVQGTEGLWEDFGWGEAAQGFIYFEKIMNHSHRWDSSEKWIKEYDHPMWKKHEQKAVGAGHGGMDYFLDNTFVECIKRNEAFPLDVYDLATWYSITPLSEKSIAENGAVQEIPDFTNGKWKNAKNTFAINDDY” the value was “soluble”; for “MGAPLADILHALVLKIEDQRLGTHASVLLLSEDGKRVLTGAAPHLPDSYNQVIHGVEIGPEVGSCGTAAYTGQRVIVEDIEHHPYWALYKSFALVHGLRACWSEPIKDTQGKVLGTFAMYYKEIKSPTVADLTLIAEAARLASLAIERSRSLEFQRLAVKILEHHHHHH”, “soluble”; for “MGARKASAGASRAATAGVRISHPQRLIDPSIQASKLELAEFHARYADLLLRDLRERPVSLVRGPDGIGGELFFQKHAARLKIPGIVQLDPALDPGHPPLLQIRSAEALVGAVQMGSIEFHTWNASLANLERPDRFVLDLDPDPALPWKRMLEATQLSLTLLDELGLRAFLKTSGGKGMHLLVPLERRHGWDEVKDFAQAISQHLARLMPERFSAVSGPRNRVGKIFVDYLRNSRGASTVAAYSVRAREGLPVSVPVFREELDSLQGANQWNLRSLPQRLDELAGDDPWADYAGTRQRISAAMRRQLGRG”, “soluble”. “MGCRATQRESVGFADKIRYTERRFISVFGVPLLIQLICQAPQRAQELEQIAARWQLQASDDSPFALVLSEERLELRKLDEPKLGAIYVDWVEGAVAHRRKFGGGKGQSIAKAAGLNKGVTPVVLDATAGLGRDAFVLASLGCRVQMVERHPVVAALLEDGLQRAKQDDEIGAWVSERISLLHASSHDALQQLASDPNFTSPDVVYLDPMYPHPENKKKTALVKKEMRVFQSLVGADNDADALLEPALQLAQKRVVVKRPDYAPWLGNRKPSMAMETKKNRFDVYVIAAMSGE”: the “soluble on expression in E. coli” value is given as “soluble”. Then “MGDNWRYEVKYDGFRTILFWTKETIRLESRNERLLTDQFPEIHDFCQRISNKVEAWLPITIDGELVHLVSPYRAHFAPIQTRSFMRKHETIAASSIKTPATLLAFDILELKGKTLVDLPYDERKKQLKALLKAIDVPLEHHHHHH”, with “not soluble”. For “MGDQLDAVEVQAISPDGEITVKLGTGDAVDVQFKSDEYFKSVPHETLSHQLGRALTLLAVGRIRKRHQILEAEGFEVYGEDDAHWDKRVRVFREKRAQVKAAGRSPKRHIAIATVGLRDFKVRFERDVTRRLSRSEFSGEFGGAVAAVISEYSAQMTQLKTAMFT” the value was “not soluble”; for “MGDVIKVLDAQVRESLSGLPELHINFRARIILNPEDPRVDSIPPLEEVRIATYTRKKIGDIEPGDRFIEIRGTIAKVYRVLTYDACPECKKKVDYDPGTGVWICPEHGEVEPIKMTILDFGLDDGTGYIRVTLFGDDAEELLGVSSEEIAEKIKELENSGLTTKEAARKLAEEEFYKIIGKEIVVRGNVIEDRFLGLILRASSWEEVDYRKEIENIKEELEKLGVMLEHHHHHH”, “soluble”.
